Results reported in US6734286 (CELLTECH R AND D, dated 2004).

Biological target: T1, Recombinant human IL-5 (human, UniProt P05113 20-134)
T1 construct: also called human interleukin-5; hIL-5
T1 sequence (looked up): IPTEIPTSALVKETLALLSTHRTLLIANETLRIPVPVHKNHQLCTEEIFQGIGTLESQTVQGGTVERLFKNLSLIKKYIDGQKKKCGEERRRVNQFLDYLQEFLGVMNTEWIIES
Assay: BIAcore; antibody captured by polyclonal anti-human Fc, recombinant human IL-5 as analyte
Procedure: Affinities of the chimeric and CDR grafted anti-IL-5 antibodies were determined using Biospecific Interaction Analysis (BIA). Antibodies were produced in CHO cells by transfection of combinations of heavy and light chain genes and purified from culture supernatants on Protein A Sepharose. […] The amount of anti-IL-5 captured for each run was approximately 1600 RU. Recombinant human IL-5 was then passed over the Sensorchip at various concentrations (0.6 to 5 µg/ml) in the above buffer. The Sensorchip was cleaned after each run with 100 mM HCl and 100 mM orthophosphoric acid to remove bound IL-5 and antibody. The sensorgrams generated were analysed using the kinetics software available with the BIAcore machine.

B1: CTIL-5-10 gH/gL6 antibody (antibody, V domains shown)
VH: EVQLVESGGGLVQPGGSLRLSCAVSGLSLTSNSVNWIRQAPGKGLEWVGLIWSNGDTDYNSAIKSRFTISRDTSKSTVYLQMNSLRAEDTAVYYCAREYYGYFDYWGQGTLVTVSS
VL: DIQMTQSPSSLSASVGDRVTITCLASEGISSYLAWYQQKPGKAPKLLIYGANSLQTGVPSRFSGSGSATDYTLTISSLQPEDFATYYCQQSYKFPNTFGQGTKVEVKR
notes: Human constant domains; also called CTIL-5-10 gH/qL6; CDR grafted 39D10
B1: binds.
